According to patent US20240336649, “SYNTHESIS OF COVALENT PROTEIN DIMERS THAT CAN INHIBIT MYC-DRIVEN TRANSCRIPTION” (MASSACHUSETTS INSTITUTE OF TECHNOLOGY, published 2024):

How the values were obtained:
[1] = molecular target: MYC-MAX covalent heterodimer 5 (lysine-linked) (UniProt P01106;P61244 SEQ:1-82,SEQ:1-80); assay: EMSA; 2 uM protein, 1 uM DNA; MES 10 mM, KCl 150 mM, MgCl2 1 mM, pH 6.5, RT; conditions: protein: synthetic; tags: chemically synthesized; C-termini linked via Lys-betaAla-Lys linker; Boc-Gly coupled as last residue of MAX during synthesis
Procedure: (§1) Biophysical characterization confirmed the folding and DNA-binding activity of the four covalent protein dimers 3, 4, 5, and 6. The dimers were first analyzed by sodium dodecyl sulfate polyacrylamide gel electrophoresis (SDS-PAGE). […] Next an electrophoretic mobility shift assay (EMSA) was performed to determine the dimers' DNA binding activity. At a DNA concentration of 1 μM and protein concentration of 2 μM, all dimers formed complexes with the E-Box DNA, as observed by the shift retardation on the gel.
(§2) The E-Box DNA probe (2 μM in binding buffer) was heated to 95° C. for 5 minutes and then let cool down to room temperature over 15 minutes for double-strand annealing. Protein dimer (4 μM in binding buffer: MES 10 mM, KCl 150 mM, MgCl₂ 1 mM, TCEP 1 mM, glycerol 10%, pH=6.5) was added to the DNA (final concentrations: 2 μM protein and 1 μM DNA) and the mixture was incubated for 1 h at room temperature. During the incubation, a 10% polyacrylamide gel was prerun (1 h, 4° C., 100 V) in 1× TBE buffer. After that time, DNA protein mixture (20 μL) was mixed with 6× DNA Loading Dye (4 μL)) and loaded on the gel, which was run at 75 V, for 90 min at 4° C. The gel was washed with water for 20 seconds and then stained with 0.02% ethidium bromide in 1xTBE buffer for 15 min at room temperature. Bands were visualized on a Biorad Gel imager.

[2] = molecular target: Omomyc-MAX covalent heterodimer 6 (lysine-linked) (UniProt P01106;P61244 SEQ:1-90,SEQ:1-80); assay: as above; conditions: protein: synthetic; tags: chemically synthesized; C-termini linked via Lys-betaAla-Lys linker; Boc-Gly coupled as last residue of MAX during synthesis
Procedure: as §1, §2

[3] = molecular target: Omomyc-Omomyc covalent homodimer 4 (lysine-linked) (UniProt P01106;P01106 SEQ:1-90,SEQ:1-90); assay: as above; conditions: protein: synthetic; tags: chemically synthesized; C-termini linked via Lys-betaAla-Lys linker; chain copies: 2 stated
Procedure: as §1, §2

[4] = molecular target: Omomyc-Max 17 (S-aryl linked covalent dimer) (UniProt P01106;P61244 SEQ:1-90,SEQ:1-80); assay: EMSA; conditions: protein: synthetic; tags: chemically synthesized; C-terminal cysteines crosslinked by dithiobenzene
[5] = molecular target: Myc-Max 16 (S-aryl linked covalent dimer) (UniProt P01106;P61244 SEQ:1-82,SEQ:1-80); assay: EMSA; conditions: protein: synthetic; tags: chemically synthesized; C-terminal cysteines crosslinked by dithiobenzene
[6] = molecular target: Myc-Myc 13 (S-aryl linked covalent dimer) (UniProt P01106;P01106 SEQ:1-82,SEQ:1-82); assay: EMSA; negative control; conditions: protein: synthetic; tags: chemically synthesized; C-terminal cysteines crosslinked by dithiobenzene; chain copies: 2 stated
[7] = molecular target: Myc analog 10 (C-terminal Cys) (UniProt P01106 SEQ:1-82); assay: EMSA; Myc alone cannot homodimerize; conditions: protein: synthetic; tags: chemically synthesized; C-terminal cysteine added
Text: (§3) The three synthetic analogs 10, 11, and 12 can form non-covalent dimers and bind to the target E-box DNA (5′-[…]-3′). […] However, it is not possible to determine which dimeric species form in a solution containing two different monomers. For instance, upon mixing Max (11) and Omomyc (12), three different dimers (Max/Max, Omomyc/Omomyc and Max/Omomyc) can form and potentially bind to DNA (FIG. 18). To assess the activity of these protein complexes in a reliable manner, access to well-defined covalent protein dimers is critical.

[8] = molecular target: Max analog 11 (C-terminal Cys), non-covalent homodimer (UniProt P61244 SEQ:1-80); assay: EMSA; Max+Max; conditions: protein: synthetic; tags: chemically synthesized; C-terminal cysteine added; chain copies: 2 stated
Text: as §3

[9] = molecular target: Omomyc analog 12 (C-terminal Cys), non-covalent homodimer (UniProt P01106 SEQ:1-90); assay: EMSA; Omomyc+Omomyc; conditions: protein: synthetic; tags: chemically synthesized; C-terminal cysteine added; chain copies: 2 stated
Text: as §3

[10] = molecular target: MYC monomer (bHLHZ, Example 2) (UniProt P01106 SEQ:1-82); assay: EMSA; negative control, 4 uM protein, 1 uM DNA; conditions: protein: synthetic; tags: chemically synthesized by automated flow peptide synthesis
Procedure: as §1, §2

[11] = molecular target: Max-Max 14 (S-aryl linked covalent dimer) (UniProt P61244;P61244 SEQ:1-80,SEQ:1-80); assay: BLI; conditions: protein: synthetic; tags: chemically synthesized; C-terminal cysteines crosslinked by dithiobenzene; chain copies: 2 stated

B1: E-box DNA probe (22 bp) (dsDNA)
DNA 1: CCGGCTGACACGTGGTATTAAT
DNA 2: ATTAATACCACGTGTCAGCCGG
- binding result [1]: binds
- binding result [2]: binds
- binding result [3]: binds
- binding result [4]: binds
- binding result [5]: binds
- binding result [6]: no binding
- binding result [7]: no binding
- binding result [8]: binds
- binding result [9]: binds
- binding result [10]: no binding
- Kd [11]: 50 nM
